Assay results reported in patent US20090311265A1.

Legend:
[1] = target: recombinant HA, subtype H3 (A/Wyoming/3/2003(H3N2)) (influenza A virus A/Wyoming/3/2003 (H3N2)); test: ELISA, coated HA, IgG 5 µg/ml
[2] = target: recombinant HA, subtype H1 (A/New Caledonia/20/99 (H1N1)) (influenza A virus A/New Caledonia/20/99 (H1N1)) (UniProt Q289M7); test: ELISA, coated HA, IgG 5 µg/ml
[3] = target: recombinant HA, subtype H7 (A/Netherlands/219/03 (H7N7)) (influenza A virus A/Netherlands/219/03 (H7N7)); test: ELISA, coated HA, IgG 5 µg/ml
[4] = target: recombinant HA, subtype H9 (A/Hong Kong/1073/99 (H9N2)) (influenza A virus A/Hong Kong/1073/99 (H9N2)); test: ELISA, coated HA, IgG 5 µg/ml
[5] = target: recombinant HA, subtype H5 (A/Vietnam/1203/2004 (H5N1)) (influenza A virus A/Vietnam/1203/2004 (H5N1)) (UniProt Q80A26); test: ELISA, coated HA, IgG 5 µg/ml
[6] = target: full-length HA from isolate A/Vietnam/1194/2004 (H5N1TV) on PER.C6 cells (influenza A virus A/Vietnam/1194/2004 (H5N1)) (UniProt Q80A26); test: flow cytometry, transfected PER.C6 cells, separate experiment
[7] = target: full-length HA from isolate A/Vietnam/1194/2004 (H5N1TV) on PER.C6 cells (influenza A virus A/Vietnam/1194/2004 (H5N1)) (UniProt Q80A26); test: flow cytometry, transfected PER.C6 cells

| Substance | OD 492 nm [1] [OD 492 nm] | OD 492 nm [2] [OD 492 nm] | OD 492 nm [3] [OD 492 nm] | OD 492 nm [4] [OD 492 nm] | OD 492 nm [5] [OD 492 nm] | flow cytometry signal at 0.1 µg/ml [6] | flow cytometry signal at 1 µg/ml [6] | flow cytometry signal at 10 µg/ml [6] | flow cytometry signal at 0.1 µg/ml [7] | flow cytometry signal at 1 µg/ml [7] | flow cytometry signal at 10 µg/ml [7] |
| --- | --- | --- | --- | --- | --- | --- | --- | --- | --- | --- | --- |
| CR3014 (antibody) | 0.07 | 0.08 | 0.17 | 0.16 | 0.09 | 10.5 | 7.95 | 9.15 | 6.21 | 10 | 13.1 |
| CR6261 (antibody) |  |  | 0.31 |  |  |  |  |  |  |  |  |
